This is an account of results in PMC4412574, “On-Off Kinetics of Engagement of FNI Modules of Soluble Fibronectin by β-Strand Addition” (PLoS ONE, 2015).

The IC50 is the concentration at which inhibition is half-maximal. A high value points to a need for much substance. One may read the Kd as the equilibrium constant for the complex coming apart.

For assay [1], the target named is T1, plasma FN (Homo sapiens, UniProt P02751). As to the kind of experiment: Stopped-flow fluorimetry (crossed polarizers), direct binding of AFpolypeptide to a series of FN concentrations. The following applies: as restated in text from Table 1; read-out: k on of FN-AFpolypeptide interaction. The protocol:
(§1) Measurements were in TBS with 100mM NaCl at 25°C. Reactants separated in two syringes were injected by SFA-20 rapid kinetics accessory (Hi-Tech Scientific, Salisbury, England) into the cuvette for mixing in QuantaMaster 300 spectrofluorimeter (Photon Technology International, Edison, New Jersey) with excitation and emission polarizers of 90 degree. The excitation and emission wavelength were 485nm and 535 nm respectively. Upon mixing the fluorescence intensity were recorded at a rate of 10 points/sec during the reaction procedure. In the absence of FN or FN70K, there was no change in fluorescence polarization for any of the AFpolypeptides.
In direct binding assays, AFFUD, AFHADD, AFFRD or AFBbk32, 10 nM, was mixed with a series of FN concentrations or with FN70K at 100 nM. AFΔBbk32 was studied only with FN at 100 nM. For each experiment, four or five curves were generated, and k obs was calculated by F(t) = Fmin+(Fmax-Fmin)e^-kobst (1) where F(t) is fluorescence intensity at time point t. Fmax or Fmin is maximum or minimum fluorescence intensity, and the rate constant k is k obs. […]
Stopped-flow fluorimetry with crossed-polarizers was performed to study on-off kinetics of the FN-AFpolypeptide interactions. Upon mixing 10 nM AFFUD, AFHADD, AFFRD or AFBbk32 with increasing concentration (100, 200, 300, 400, or 500 nM) of FN, decreases of fluorescence intensity were observed (Fig 3). […]

Assay [2] has as its target T2, FN70K fragment (Homo sapiens, UniProt P02751).
T2 construct: the FN70K domain comprising the N-terminal ^1-9FNI and ^1-2FNII modules of FN; from tissue; host or cells: proteolytic fragment of FN
As to the kind of experiment: Size exclusion chromatography of FN70K-AFpolypeptide complex. As to conditions: data not shown, read-out: k off estimated from size exclusion chromatography. The assay is classed as binding. The method, then: (§2) Fractions of 0.5 ml were collected and assayed. FN was monitored by absorbance at 280 nm by NanoDrop 2000 UV-Vis Spectrophotometer (Thermo Scientific, Wilmington, DE) and AFpolypeptide by Tecan Genios Pro microplate reader with excitation 485 nm and emission 535 nm. FN, AFFUD or AFBbk32 was analyzed by itself as a control. The k off of FN-AFFUD complex was estimated by estimating the lower limit of half-life (t1/2) of complex decay and the following equation: t1/2 = 0.693/koff (4)
(§3) To corroborate the estimates from stopped-flow fluorimetry of k off for the FN-FUD or FN-Bbk32 interaction by a second method, size exclusion chromatography of the FN-AFFUD or FN-AFBbk32 complex was carried out. […] Elution patterns of FN alone (Fig 6C), AFFUD alone (Fig 6D), and AFBbk32 alone (Fig 6E) are also shown. FN eluted at 20 min. We estimate, therefore, that the half-life of FN-AFFUD is longer than 20 min and, according to Eq, the k off of FN-AFFUD is < 10^-3 s^-1, which is more than 20-fold slower than that estimated for FN-AFBbk32 by Eq or the displacement experiment (Table 1).

The target in assay [3] is T1, plasma FN. The experiment in a line: Size exclusion chromatography of FN-AFpolypeptide complex. As to conditions: from half-life lower limit by Eq 4, read-out: k off estimated from size exclusion chromatography. It is filed as binding. The method, then: as §2, §3
Fig 6 FPLC size exclusion of FN-AFFUD or FN-AFBbk32 complex. […] Absorbance at 280nm (A^280nm), and emission at 535 nm upon excitation at 485 nm (E^535nm) were measured to estimate, respectively, concentration of FN and AFpolypeptide and expressed relative to the values in starting material. […]

Assay [4] addresses T1, plasma FN. The experiment in a line: Stopped-flow displacement of AFpolypeptide from FN complex by unlabeled polypeptide (or size exclusion chromatography). The assay is classed as binding. The following applies: 1 μM unlabeled polypeptide, over 180 sec (Fig 3E-H). The protocol:
as §1
In displacement assays, unlabeled FUD, HADD, FRD, Bbk32, or ΔBbk32 in 10-fold molar excess of FN or FN70K was mixed with complex of AFpolypeptide and FN or FN70K. For ΔBbk32, only displacement from FN was measured. The k off value is calculated by Ft = Fmin+Fmax-Fmin1-e^-kofft (3) in which k off is the dissociation rate constant. The k on of FN70K-AFpolypeptide was determined by Eq based on [FN70K] and the k off of FN70K-AFpolypeptide obtained from Eq.
Fractions of 0.5 ml were collected and assayed. FN was monitored by absorbance at 280 nm by NanoDrop 2000 UV-Vis Spectrophotometer (Thermo Scientific, Wilmington, DE) and AFpolypeptide by Tecan Genios Pro microplate reader with excitation 485 nm and emission 535 nm. […]
For orientation: In gel filtration, larger molecules generally elute earlier.

For assay [5], the target named is plasma fibronectin (FN) (UniProt P02751). As to the kind of experiment: ELISA; competitive: FN coated on 96-well plate (50 ul, 20 nM); 0.5 nM b-FUD or b-Bbk32 mixed with unlabeled FUD or Bbk32 at 1, 10, 100 or 1000 nM, 1 h; bound biotinylated polypeptide detected with enzyme-conjugated (strept)avidin. A general note: In an ELISA, binding on a coated surface is turned into a signal by an enzyme label.

In assay [6] the target is FN70K fragment (N-terminal 70-kDa region of fibronectin). As to the kind of experiment: fluorescence polarisation; stopped-flow with crossed polarizers, direct binding at a single concentration: 10 nM AFpolypeptide mixed with 100 nM FN70K; kon from kobs and the koff of displacement (koff taken as 0 for FUD and HADD); TBS with 100 mM NaCl, 25°C. (In general: Polarisation of emitted light reports the rotation of a fluorescent probe.)

In assay [7] the target is plasma fibronectin (FN) (UniProt P02751). The experiment in a line: SEC; 400 nM FN and 40 nM AFFUD or AFBbk32 mixed 30 min in TBS with 100 mM NaCl, Superose 6 10/300 at 0.5 ml/min; FN by A280, AFpolypeptide by fluorescence; koff from the lower limit of the half-life.
Assay [8] addresses FN70K fragment (N-terminal 70-kDa region of fibronectin). As to the kind of experiment: fluorescence polarisation + SEC; KD limit calculated as koff/kon from the stopped-flow on-rate and the upper limit of koff by chromatography.
In assay [9] the target is plasma fibronectin (FN) (UniProt P02751). The assay is described as above.
Assay [10] concerns the target FN70K fragment (N-terminal 70-kDa region of fibronectin). The experiment in a line: SEC; data not shown: the same size exclusion experiment as for FN-AFFUD, with FN70K-AFFUD, FN-AFHADD or FN70K-AFHADD.
Assay [11] addresses plasma fibronectin (FN) (UniProt P02751). As to the kind of experiment: fluorescence polarisation; stopped-flow with crossed polarizers, direct binding: 10 nM AFpolypeptide mixed with 100, 200, 300, 400 or 500 nM FN; kobs against [FN], kon from the slope, koff from the y-intercept; TBS with 100 mM NaCl, 25°C.
Assay [12] has the same target. The experiment in a line: fluorescence polarisation; stopped-flow with crossed polarizers, displacement: 10 nM AFpolypeptide pre-mixed 30 min with 100 nM FN or FN70K, then 1 uM of the same unlabeled polypeptide; single exponential fit; TBS with 100 mM NaCl, 25°C.
The target of assay [13] is FN70K fragment (N-terminal 70-kDa region of fibronectin). The experiment in a line: fluorescence polarisation; KD calculated as koff/kon from the stopped-flow on-rate and the off-rate of the stopped-flow displacement.
For assay [14], the target named is plasma fibronectin (FN) (UniProt P02751). Described as above.
The target of assay [15] is FN70K fragment (N-terminal 70-kDa region of fibronectin). The experiment in a line: fluorescence polarisation; stopped-flow with crossed polarizers, displacement: 10 nM AFpolypeptide pre-mixed 30 min with 100 nM FN or FN70K, then 1 uM of the same unlabeled polypeptide; single exponential fit; TBS with 100 mM NaCl, 25°C.
Assay [16] has as its target plasma fibronectin (FN) (UniProt P02751). The experiment in a line: SEC; data not shown: the same size exclusion experiment as for FN-AFFUD, with FN70K-AFFUD, FN-AFHADD or FN70K-AFHADD.
The target is the same in assay [17]. The experiment in a line: fluorescence polarisation; stopped-flow with crossed polarizers, displacement: 10 nM AFpolypeptide pre-mixed 30 min with 100 nM FN or FN70K, then 1 uM of the same unlabeled polypeptide; single exponential fit; TBS with 100 mM NaCl, 25°C. The source holds these as a separate data set.

Peptide text beside a SMILES is read from it. Some results are limits rather than exact numbers.

T1 sequence (P02751 32-609): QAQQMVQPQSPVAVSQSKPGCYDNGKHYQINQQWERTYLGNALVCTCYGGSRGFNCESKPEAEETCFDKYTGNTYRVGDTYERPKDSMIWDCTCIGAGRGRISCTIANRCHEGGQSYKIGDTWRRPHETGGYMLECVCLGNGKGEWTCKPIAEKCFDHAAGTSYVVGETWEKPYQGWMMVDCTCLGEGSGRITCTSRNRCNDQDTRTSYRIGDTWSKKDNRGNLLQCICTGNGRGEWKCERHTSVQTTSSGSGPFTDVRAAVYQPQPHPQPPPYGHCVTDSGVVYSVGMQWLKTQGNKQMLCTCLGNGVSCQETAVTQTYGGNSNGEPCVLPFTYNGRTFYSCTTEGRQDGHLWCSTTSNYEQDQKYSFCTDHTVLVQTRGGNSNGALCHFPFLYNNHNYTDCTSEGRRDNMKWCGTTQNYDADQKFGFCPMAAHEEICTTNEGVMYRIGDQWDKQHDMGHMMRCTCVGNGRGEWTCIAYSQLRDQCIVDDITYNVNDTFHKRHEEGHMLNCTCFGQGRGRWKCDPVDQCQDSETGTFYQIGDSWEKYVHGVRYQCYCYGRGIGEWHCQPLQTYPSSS
T2 sequence (P02751 32-609 limits assumed): as the sequence (P02751 32-609) above

Consider `C[C@H](N)C(=O)N[C@@H](Cc1ccccc1)C(=O)N[C@@H](Cc1c[nH]cn1)C(=O)N[C@@H](C)C(=O)N[C@@H](CC(=O)O)C(=O)N[C@@H](CC(=O)O)C(=O)O` [AFHADD] (H-AFHADD-OH), for which the kon in assay [1] was 430000 M⁻¹ s⁻¹. In addition, the koff in assay [2] and in [3] was under 0.001 s⁻¹ each time. The “reversal of fluorescence intensity decrease on displacement” value in assay [4] is given as “less than 10%”.

Molecule “FUD, unlabeled (version with the N-terminal cysteine) (domain or fragment)” returned an IC50 in [5] of 0.01 µM.

Take “AFFUD (FUD labeled with Alexa 488 on the N-terminal cysteine) (domain or fragment)”: the kon in assay [6] stood at 3.9e+06 M⁻¹ s⁻¹; in assay [11], 390000 M⁻¹ s⁻¹. The same molecule displayed a half-life of the complex in assay [7] of over 20 min. Moreover, the koff in [7] and in [10] was under 0.001 s⁻¹ in each case. In assay [7], this molecule registered a percent of AFFUD eluting with FN of 100%. The equilibrium dissociation constant (Kd) in [8] is under 0.00026 µM; in [9] it was under 0.0026 µM. In assay [12], the percent of the fluorescence intensity decrease reversed over 180 sec by 1 uM unlabeled polypeptide is under 10%.

In [5], “Bbk32, unlabeled (version with the N-terminal cysteine) (domain or fragment)” showed an IC50 of 0.03 µM and a percent of b-FUD binding to FN left at 1000 nM Bbk32 of over 60%.

Turning to “AFBbk32 (Bbk32 labeled with Alexa 488 on the N-terminal cysteine) (domain or fragment)”, the values for the kon in assay [6] and in assay [11] were 2.4e+06 M⁻¹ s⁻¹ and 180000 M⁻¹ s⁻¹, respectively. In addition, the Kd in assay [13] is 0.014 µM; in [14], 0.14 µM. Further, the values for the koff in [11], in assay [15] and in [12] were 0.036 to 0.041 s⁻¹, 0.033 s⁻¹ and 0.025 s⁻¹, respectively.

Take “AFHADD (HADD labeled with Alexa 488 on the N-terminal cysteine) (domain or fragment)”: the values for the kon in assay [6] and in assay [11] were 9.7e+06 M⁻¹ s⁻¹ and 430000 M⁻¹ s⁻¹, respectively. For the same molecule, the Kd in assay [8] was under 0.0001 µM; in [9], under 0.0023 µM. Also, the koff in assay [10] and in assay [16] was under 0.001 s⁻¹ throughout. The molecule also yielded a percent of the fluorescence intensity decrease reversed over 180 sec by 1 uM unlabeled polypeptide in [12] of under 10%.

On to “AFFRD (FRD labeled with Alexa 488 on the N-terminal cysteine) (domain or fragment)”, for which the koff was 0.02 s⁻¹ in [17], 0.027 to 0.039 s⁻¹ in [11], 0.013 s⁻¹ in assay [15] and 0.021 s⁻¹ in [12]. Also, the kon was 4.1e+06 M⁻¹ s⁻¹ in assay [6] and 290000 M⁻¹ s⁻¹ in assay [11]. The results for the dissociation constant (Kd) in assay [13] and in assay [14] were 0.0031 µM and 0.07 µM, respectively.
